From patent US20220363757A1 (SYMPHOGEN A S, published 2022)

T1: human LAG-3 domain 1-2 Fc fusion, point mutation #58 P115A (human, UniProt P18627 23-266)
T1 construct: not shown: human IgG1 Fc, AA P101-K330
T1 sequence: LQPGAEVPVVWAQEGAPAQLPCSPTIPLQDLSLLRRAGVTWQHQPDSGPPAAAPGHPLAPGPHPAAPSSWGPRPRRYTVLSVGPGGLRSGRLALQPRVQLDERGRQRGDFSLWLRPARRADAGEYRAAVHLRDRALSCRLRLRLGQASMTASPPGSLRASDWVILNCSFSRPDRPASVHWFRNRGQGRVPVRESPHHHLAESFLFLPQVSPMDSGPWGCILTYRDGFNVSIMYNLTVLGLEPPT

T2: human LAG-3 domain 1-2 Fc fusion, point mutation #22 A75S (human, UniProt P18627 23-266)
T2 construct: not shown: human IgG1 Fc, AA P101-K330
T2 sequence: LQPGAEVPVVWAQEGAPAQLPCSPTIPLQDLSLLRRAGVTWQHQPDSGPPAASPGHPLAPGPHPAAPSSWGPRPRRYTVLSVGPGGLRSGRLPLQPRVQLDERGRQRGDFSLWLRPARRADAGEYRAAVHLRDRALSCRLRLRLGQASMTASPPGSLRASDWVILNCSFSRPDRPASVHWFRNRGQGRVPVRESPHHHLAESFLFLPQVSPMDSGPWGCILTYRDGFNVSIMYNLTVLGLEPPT

T3: human LAG-3 domain 1-2 Fc fusion, point mutation #72 S133A (human, UniProt P18627 23-266)
T3 construct: not shown: human IgG1 Fc, AA P101-K330
T3 sequence: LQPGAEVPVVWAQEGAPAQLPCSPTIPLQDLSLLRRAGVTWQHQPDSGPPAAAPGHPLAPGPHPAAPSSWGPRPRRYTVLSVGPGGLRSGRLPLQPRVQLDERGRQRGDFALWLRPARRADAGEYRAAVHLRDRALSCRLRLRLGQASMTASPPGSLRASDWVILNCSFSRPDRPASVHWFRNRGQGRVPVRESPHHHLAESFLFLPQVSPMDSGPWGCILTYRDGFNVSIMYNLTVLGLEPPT

T4: human LAG-3 domain 1-2 Fc fusion, point mutation #39 W92A (human, UniProt P18627 23-266)
T4 construct: not shown: human IgG1 Fc, AA P101-K330
T4 sequence: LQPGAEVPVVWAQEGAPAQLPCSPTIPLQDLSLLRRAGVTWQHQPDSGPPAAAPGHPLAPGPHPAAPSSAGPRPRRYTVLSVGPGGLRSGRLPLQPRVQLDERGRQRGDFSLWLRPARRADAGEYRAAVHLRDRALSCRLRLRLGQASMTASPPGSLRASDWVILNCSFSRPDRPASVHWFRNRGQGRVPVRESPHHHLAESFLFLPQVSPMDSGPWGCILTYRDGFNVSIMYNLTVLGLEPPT

T5: human LAG-3 domain 1-2 Fc fusion, point mutation #40 G93A (human, UniProt P18627 23-266)
T5 construct: not shown: human IgG1 Fc, AA P101-K330
T5 sequence: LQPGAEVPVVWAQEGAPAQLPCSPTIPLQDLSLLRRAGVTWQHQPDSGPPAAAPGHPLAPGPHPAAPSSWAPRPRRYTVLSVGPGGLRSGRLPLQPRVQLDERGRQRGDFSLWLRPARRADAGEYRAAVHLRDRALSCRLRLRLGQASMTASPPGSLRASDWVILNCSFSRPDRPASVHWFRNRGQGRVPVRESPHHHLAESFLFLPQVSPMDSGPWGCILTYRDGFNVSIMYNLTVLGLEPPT

T6: human LAG-3 domain 1-2 Fc fusion, point mutation #43 P96A (human, UniProt P18627 23-266)
T6 construct: not shown: human IgG1 Fc, AA P101-K330
T6 sequence: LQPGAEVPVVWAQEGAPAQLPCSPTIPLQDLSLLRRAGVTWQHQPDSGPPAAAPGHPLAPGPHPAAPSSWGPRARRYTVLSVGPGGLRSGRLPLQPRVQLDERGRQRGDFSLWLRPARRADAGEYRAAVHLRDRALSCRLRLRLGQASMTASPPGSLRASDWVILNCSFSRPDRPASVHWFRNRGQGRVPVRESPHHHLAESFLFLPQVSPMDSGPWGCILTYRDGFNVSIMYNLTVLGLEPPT

T7: human LAG-3 domain 1-2 Fc fusion, point mutation #36 P89A (human, UniProt P18627 23-266)
T7 construct: not shown: human IgG1 Fc, AA P101-K330
T7 sequence: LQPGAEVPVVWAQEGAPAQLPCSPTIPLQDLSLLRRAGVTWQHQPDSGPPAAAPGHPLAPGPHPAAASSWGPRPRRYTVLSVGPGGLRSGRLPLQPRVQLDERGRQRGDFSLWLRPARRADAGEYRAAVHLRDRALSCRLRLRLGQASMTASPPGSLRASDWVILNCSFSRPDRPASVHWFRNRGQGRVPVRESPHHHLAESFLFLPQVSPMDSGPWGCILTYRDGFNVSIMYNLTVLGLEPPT

T8: human LAG-3 domain 1-2 Fc fusion, point mutation #53 L109A (human, UniProt P18627 23-266)
T8 construct: not shown: human IgG1 Fc, AA P101-K330
T8 sequence: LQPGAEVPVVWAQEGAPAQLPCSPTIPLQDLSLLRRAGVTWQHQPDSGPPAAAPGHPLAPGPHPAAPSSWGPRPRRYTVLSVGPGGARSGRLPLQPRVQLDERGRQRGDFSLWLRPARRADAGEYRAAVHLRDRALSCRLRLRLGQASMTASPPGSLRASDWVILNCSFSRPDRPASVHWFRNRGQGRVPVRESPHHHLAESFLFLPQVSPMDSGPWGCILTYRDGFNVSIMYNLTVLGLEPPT

T9: human LAG-3 domain 1-2 Fc fusion, point mutation #78 R154A (human, UniProt P18627 23-266)
T9 construct: not shown: human IgG1 Fc, AA P101-K330
T9 sequence: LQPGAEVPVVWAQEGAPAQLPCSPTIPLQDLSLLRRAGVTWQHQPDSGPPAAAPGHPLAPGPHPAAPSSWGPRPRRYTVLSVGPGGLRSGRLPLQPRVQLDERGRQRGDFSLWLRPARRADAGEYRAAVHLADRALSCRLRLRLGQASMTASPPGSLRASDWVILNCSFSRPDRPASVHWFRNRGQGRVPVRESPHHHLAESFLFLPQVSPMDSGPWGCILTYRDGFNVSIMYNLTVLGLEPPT


Assays:
Assay in all cases: SPR, Fab over captured mutant LAG-3-Fc;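 also: fc fusion variants captured on anti-human IgG Fc sensor, Fab injected with association then dissociation phases, KD obtained from Langmuir one-to-one fit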
[1] = biological target: T1, human LAG-3 domain 1-2 Fc fusion, point …
Description: (§1) The LAG-3 fusion proteins were immobilized onto a G-a-hu-IgG Fc SensEye® (Ssens BV, The Netherlands) for 15 minutes using a Continuous Flow Microspotter (CFM, Wasatch Microfluidics, Salt Lake City, US). After spotting, the SensEye® was positioned in an IBIS MX96 biosensor and captured proteins were evaluated for binding affinity. […] Fab association was performed for 15 minutes and antigen dissociation was performed for 15 minutes. The recorded binding responses were fitted to a simple Langmuir 1:1 binding model with Scrubber 2 software for calculation of the on-rate (kon or ka), off-rate (koff or kd) and affinity (KD) constants.

[2] = biological target: T2, human LAG-3 domain 1-2 Fc fusion, point …
Description: as §1

[3] = biological target: T3, human LAG-3 domain 1-2 Fc fusion, point …
Description: as §1

[4] = biological target: T4, human LAG-3 domain 1-2 Fc fusion, point …
Description: as §1

[5] = biological target: T5, human LAG-3 domain 1-2 Fc fusion, point …
Description: as §1

[6] = biological target: T6, human LAG-3 domain 1-2 Fc fusion, point …
Description: as §1

[7] = biological target: T7, human LAG-3 domain 1-2 Fc fusion, point …
Description: as §1

[8] = biological target: T8, human LAG-3 domain 1-2 Fc fusion, point …
Description: as §1

[9] = biological target: T9, human LAG-3 domain 1-2 Fc fusion, point …
Description: as §1

Row | Binder | KD mutant/KD wild type [1] | KD mutant/KD wild type [2] | KD mutant/KD wild type [3] | binding result [4] | KD mutant/KD wild type [5] | KD mutant/KD wild type [6] | KD mutant/KD wild type [7] | KD mutant/KD wild type [8] | KD mutant/KD wild type [9] | binding result [3] | KD mutant/KD wild type [4] | binding result [6]
1 | Fab fragment of antibody 15431 (Fab, V domains shown, not shown: a dimerising Fc or GST, monomeric Fab made by GingisKHAN digestion of the IgG1) VH: QVQLQQSGPGLVKPSQTLSLTCAISGDSVSSNSAAWNWIRQSPSRGLEWLGRTYYRSKWYNDYAVSVKSRITINPDTSKNQFSLQLNSVTPEDTAVYYCARDDDWNDFDYWGQGTLVTVSS VL: EIVLTQSPATLSLSPGERATLSCRASQSVSSYLAWYQQKPGQAPRLLIYDASNRATGIPARFSGSGSGTDFTLTISSLEPEDFAVYYCQQRSNWPLTFGGGTKVEIKR | 1.1 fold | 0.8 fold | – | – | 11.6 fold | – | 0.8 fold | 1 fold | 1 fold | no binding (tested: 300 nM) | 3.6 fold | no binding (tested: 300 nM)
2 | Fab fragment of antibody 15011 (Fab, V domains shown, not shown: a dimerising Fc or GST, monomeric Fab made by GingisKHAN digestion of the IgG1) VH: EVQLLESGGGLVQPGGSLRLSCAASGFDFRSYAMMWVRQAPGKGLEWVGGINGEVGGSNTYYAPAVKGRATISRDNSKNTLYLQMNSLRAEDTAVYYCVKGAGACGICNDDIDAWGQGTLVTVSS VL: SYELTQDPAVSVALGQTVRITCSGAGSYAGSYYYGWHQQKPGQAPVTVIYDNDKRPSNIPDRFSGSSSGNTASLTITGAQAEDEADYYCGSTNDNDDGGLFGSGTKVTVLG | 1.3 fold | 0.8 fold | 0.6 fold | – | 1 fold | 0.6 fold | 0.9 fold | 84.2 fold | 1.2 fold | – | 1.1 fold | –

Continued, values first:

Row | KD mutant/KD wild type [1] | KD mutant/KD wild type [2] | KD mutant/KD wild type [3] | binding result [4] | KD mutant/KD wild type [5] | KD mutant/KD wild type [6] | KD mutant/KD wild type [7] | KD mutant/KD wild type [8] | KD mutant/KD wild type [9] | binding result [3] | KD mutant/KD wild type [4] | binding result [6] | Binder
3 | 1 fold | 0.9 fold | 2.2 fold | no binding (tested: 300 nM) | 7.1 fold | 1.4 fold | 14.2 fold | 1.1 fold | 0.8 fold | – | – | – | Fab fragment of antibody 15532 (Fab, V domains shown, not shown: a dimerising Fc or GST, monomeric Fab made by GingisKHAN digestion of the IgG1) VH: QVQLQQWGAGLLRPSETLSLTCAVYGESFSGYYWNWIRQPPGKGLEWIGEINHSGSTNYNPSLKSRVTISVDTSKTQFSLKLSSVTAADTAVYYCARGWDLLDWNDYWNEYWGQGTLVTVSS VL: EIVLTQSPATLSLSPGERATLSCRASQSVSSYLAWYQQKPGQAPRLLIYDASNRATGIPARFSGSGSGTDFTLTISSLEPEDFAVYYCQQRSNWPLTFGGGTKVEIKR
4 | 1.4 fold | 0.7 fold | – | – | 0.8 fold | – | 0.8 fold | 1 fold | 0.8 fold | no binding (tested: 300 nM) | 1 fold | no binding (tested: 300 nM) | Fab fragment of antibody 15572 (Fab, V domains shown, not shown: a dimerising Fc or GST, monomeric Fab made by GingisKHAN digestion of the IgG1) VH: QLQLQESGPGLVKPSETLSLTCTVSGDSISSSSYYWGWIRQPPGKGLEWIGSIFYSGNTYYNPSLKSRVTISVDTSKNQFSLKLSSVTAADTAVYYCAREDDFLTDYYGAFDIWGQGTMVTVSS VL: not shown
